We go through one substance from patent US20060246076A1.

The test has as its target murine inducible nitric oxide synthase (murine) (UniProt P29477).

Bounds are passed on as bounds.

As to “COX2-myc fragment 484-604 (from UniProt P35354)”, the PGE2 formation reduction is over 50%.
